Key:
[1] = molecular target: GluK2-ATD (Cys-light homomeric GluK2 receptor with a cysteine at site 266) (Rattus norvegicus) (UniProt P42260)
[2] = molecular target: GluK2-ABD (Cys-light homomeric GluK2 receptor with a cysteine at site 479) (Rattus norvegicus) (UniProt P42260)

smFRET efficiency across the dimer-dimer interface at the ATD (site 266) with 40 uM Con-A and 1 mM glutamate; primary population, against 0.83 reported earlier without Con-A (FRET efficiency) [1]: 0.95
smFRET efficiency between subunits at the ABD dimer interface (site 479) with 40 uM Con-A and 1 mM glutamate, Na+; major peak, shift of the population to higher FRET states against no Con-A (FRET efficiency) [2]: 0.94
Substance: Concanavalin A (natural protein)
